Consider one substance from publication PMC5477842.

For this assay, the target named is Truncated rat Eag1 (rEag1Δ; Kv10.1 with residues 773-886 removed) (rat) (UniProt Q63472). Kind of assay: cryo-EM structure.

For the substance “calmodulin (from UniProt P0DP23 1-149) (natural protein)”, the stoichiometry N (CaM molecules per rEag1 tetramer) is 4.
